Measurements taken from publication PMC11257539.

Biological target: full-length human VARP with a C-terminal 10xHis tag (human) (UniProt Q96NW4)
Assay: BLI

Chain of full-length human VARP with a C-terminal 10xHis tag (human) (Q96NW4 whole entry): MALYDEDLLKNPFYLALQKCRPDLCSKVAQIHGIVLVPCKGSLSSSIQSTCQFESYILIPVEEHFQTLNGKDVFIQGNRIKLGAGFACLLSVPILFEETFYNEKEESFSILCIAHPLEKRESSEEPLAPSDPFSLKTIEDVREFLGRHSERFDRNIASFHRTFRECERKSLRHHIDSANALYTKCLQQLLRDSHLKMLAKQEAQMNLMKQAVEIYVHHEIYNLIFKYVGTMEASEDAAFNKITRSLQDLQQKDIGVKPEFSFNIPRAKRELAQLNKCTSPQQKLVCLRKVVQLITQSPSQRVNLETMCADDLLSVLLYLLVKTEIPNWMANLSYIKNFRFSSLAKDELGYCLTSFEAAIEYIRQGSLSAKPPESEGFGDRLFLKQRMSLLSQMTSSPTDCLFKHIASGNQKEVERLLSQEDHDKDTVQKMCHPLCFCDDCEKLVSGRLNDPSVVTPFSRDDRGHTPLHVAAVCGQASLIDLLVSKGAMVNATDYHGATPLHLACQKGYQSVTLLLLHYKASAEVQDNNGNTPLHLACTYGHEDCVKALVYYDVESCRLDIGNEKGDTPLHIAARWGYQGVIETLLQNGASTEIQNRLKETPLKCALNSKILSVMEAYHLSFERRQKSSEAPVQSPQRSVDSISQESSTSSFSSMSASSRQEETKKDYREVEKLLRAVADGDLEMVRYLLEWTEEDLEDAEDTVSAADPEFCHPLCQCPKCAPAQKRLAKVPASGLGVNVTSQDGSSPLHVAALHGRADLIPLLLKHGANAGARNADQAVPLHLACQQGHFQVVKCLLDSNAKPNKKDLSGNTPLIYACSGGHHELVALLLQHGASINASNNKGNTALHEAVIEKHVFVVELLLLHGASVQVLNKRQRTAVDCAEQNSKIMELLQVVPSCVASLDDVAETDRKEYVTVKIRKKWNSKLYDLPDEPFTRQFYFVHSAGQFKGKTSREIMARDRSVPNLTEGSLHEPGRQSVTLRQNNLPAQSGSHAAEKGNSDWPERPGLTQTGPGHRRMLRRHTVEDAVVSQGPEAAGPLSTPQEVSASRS

ka1: 5040 M⁻¹ s⁻¹
ka2: 0.0535 M⁻¹ s⁻¹
kdis1: 0.000363 s⁻¹
kdis2: 0.00891 s⁻¹
Substance: Retromer heterotrimer (VPS26/VPS35/VPS29 subunits) (from UniProt O75436;Q96QK1;Q9UBQ0) (complex)
